Experimental data published in the Human Domainome abundance scans (Beltran et al. 2025).
± gives the uncertainty stated by the source.

B1: Dynamin-binding protein, residues 146 to 206; numbered along this chain, Q6XZF7 (parent)
chain: SMGQARALMGLSAQLDEELDFREGDVITIIGVPEPGWFEGELEGRRGIFPEGFVELLGPLR

Variants of: B1
Assay: abundance fitness (aPCA) (normalised: wild type 0, dead -1); higher = more abundant; growth selection in yeast, the domain comes from the species named
Settings: Homo sapiens

Variant	abundance fitness
SMGQARALMGLSAQLDEELDFREGDVGTIIGVPEPGWFEGELEGRRGIFPEGFVELLGPLR	-0.627 ± 0.12
SMGQARALMGLSAQLDEELDFREGDVDTIIGVPEPGWFEGELEGRRGIFPEGFVELLGPLR	-0.694 ± 0.066
SMGQARALMGLSAQLDEELDFREGDVKTIIGVPEPGWFEGELEGRRGIFPEGFVELLGPLR	-0.73 ± 0.13
SMGQARALMGLSAQLDEELDFREGDVSTIIGVPEPGWFEGELEGRRGIFPEGFVELLGPLR	-0.753 ± 0.054
SMGQARALMGLSAQLDEELDFREGDVETIIGVPEPGWFEGELEGRRGIFPEGFVELLGPLR	-0.773 ± 0.15
SMGQARALMGLSAQLDEELDFREGDVISIIGVPEPGWFEGELEGRRGIFPEGFVELLGPLR	0.011 ± 0.054
SMGQARALMGLSAQLDEELDFREGDVICIIGVPEPGWFEGELEGRRGIFPEGFVELLGPLR	-0.941 ± 0.2
SMGQARALMGLSAQLDEELDFREGDVIEIIGVPEPGWFEGELEGRRGIFPEGFVELLGPLR	0.016 ± 0.17
SMGQARALMGLSAQLDEELDFREGDVIWIIGVPEPGWFEGELEGRRGIFPEGFVELLGPLR	-0.809 ± 0.38
SMGQARALMGLSAQLDEELDFREGDVITIIGQPEPGWFEGELEGRRGIFPEGFVELLGPLR	0.189 ± 0.1
SMGQARALMGLSAQLDEELDFREGDVITIIGPPEPGWFEGELEGRRGIFPEGFVELLGPLR	-1.04 ± 0.23
SMGQARALMGLSAQLDEELDFREGDVITIIGFPEPGWFEGELEGRRGIFPEGFVELLGPLR	-0.446 ± 0.15
SMGQARALMGLSAQLDEELDFREGDVITIIGNPEPGWFEGELEGRRGIFPEGFVELLGPLR	-0.232 ± 0.17
SMGQARALMGLSAQLDEELDFREGDVITIIGGPEPGWFEGELEGRRGIFPEGFVELLGPLR	-0.599 ± 0.075
SMGQARALMGLSAQLDEELDFREGDVITIIGKPEPGWFEGELEGRRGIFPEGFVELLGPLR	-0.349 ± 0.19
SMGQARALMGLSAQLDEELDFREGDVITIIGCPEPGWFEGELEGRRGIFPEGFVELLGPLR	-0.12 ± 0.06
SMGQARALMGLSAQLDEELDFREGDVITILGVPEPGWFEGELEGRRGIFPEGFVELLGPLR	-0.085 ± 0.13
SMGQARALMGLSAQLDEELDFREGDVITIRGVPEPGWFEGELEGRRGIFPEGFVELLGPLR	-0.284 ± 0.11
SMGQARALMGLSAQLDEELDFREGDVITIYGVPEPGWFEGELEGRRGIFPEGFVELLGPLR	-0.286 ± 0.15
SMGQARALMGLSAQLDEELDFREGDVITICGVPEPGWFEGELEGRRGIFPEGFVELLGPLR	-0.599 ± 0.19
SMGQARALMGLSAQLDEELDFREGDVITIAGVPEPGWFEGELEGRRGIFPEGFVELLGPLR	-0.374 ± 0.17
SMGQARALMGLSAQLDEELDFREGDVITIKGVPEPGWFEGELEGRRGIFPEGFVELLGPLR	-0.129 ± 0.14

Variant	abundance fitness
SMGQARALMGLSAQLDEELDFREGDVITIMGVPEPGWFEGELEGRRGIFPEGFVELLGPLR	-0.481 ± 0.27
SMGQARALMGLSAQLDEELDFREGDHITIIGVPEPGWFEGELEGRRGIFPEGFVELLGPLR	-0.279 ± 0.067
SMGQARALMGLSAQLDEELDFREGDKITIIGVPEPGWFEGELEGRRGIFPEGFVELLGPLR	-0.311 ± 0.12
SMGQARALMGLSAQLDEELDFREGDPITIIGVPEPGWFEGELEGRRGIFPEGFVELLGPLR	-0.64 ± 0.12
SMGQARALMGLSAQLDEELDFREGDQITIIGVPEPGWFEGELEGRRGIFPEGFVELLGPLR	-0.532 ± 0.14
SMGQARALMGLSAQLDEELDFREGDTITIIGVPEPGWFEGELEGRRGIFPEGFVELLGPLR	-0.319 ± 0.075
SMGQARALMGLSAQLDEELDFREGDCITIIGVPEPGWFEGELEGRRGIFPEGFVELLGPLR	-0.45 ± 0.047
SMGQARALMGLSAQLDEELDFREGDMITIIGVPEPGWFEGELEGRRGIFPEGFVELLGPLR	-0.154 ± 0.1
SMGQARALMGLSAQLDEELDFREGDLITIIGVPEPGWFEGELEGRRGIFPEGFVELLGPLR	0.043 ± 0.049
SMGQARALMGLSAQLDEELDFREGDEITIIGVPEPGWFEGELEGRRGIFPEGFVELLGPLR	-0.27 ± 0.13
SMGQARALMGLSAQLDEELDFREGDYITIIGVPEPGWFEGELEGRRGIFPEGFVELLGPLR	-0.416 ± 0.051
SMGQARALMGLSAQLDEELDFREGDWITIIGVPEPGWFEGELEGRRGIFPEGFVELLGPLR	-0.554 ± 0.1
SMGQARALMGLSAQLDEELDFREGDFITIIGVPEPGWFEGELEGRRGIFPEGFVELLGPLR	-0.464 ± 0.055
SMGQARALMGLSAQLDEELDFREGDGITIIGVPEPGWFEGELEGRRGIFPEGFVELLGPLR	-0.687 ± 0.056
SMGQARALMGLSAQLDEELDFREGDRITIIGVPEPGWFEGELEGRRGIFPEGFVELLGPLR	-0.353 ± 0.054
SMGQARALMGLSAQLDEELDFREGDNITIIGVPEPGWFEGELEGRRGIFPEGFVELLGPLR	-0.594 ± 0.078
SMGQARALMGLSAQLDEELDFREGDSITIIGVPEPGWFEGELEGRRGIFPEGFVELLGPLR	-0.704 ± 0.059
SMGQARALMGLSAQLDEELDFREGFVITIIGVPEPGWFEGELEGRRGIFPEGFVELLGPLR	-0.518 ± 0.075
SMGQARALMGLSAQLDEELDFREGMVITIIGVPEPGWFEGELEGRRGIFPEGFVELLGPLR	-0.724 ± 0.14
SMGQARALMGLSAQLDEELDFREGKVITIIGVPEPGWFEGELEGRRGIFPEGFVELLGPLR	-1.03 ± 0.21
SMGQARALMGLSAQLDEELDFREGDVITIIGVDEPGWFEGELEGRRGIFPEGFVELLGPLR	-1.11 ± 0.35
SMGQARALMGLSAQLDEELDFREGDVITIIGVHEPGWFEGELEGRRGIFPEGFVELLGPLR	-0.27 ± 0.11

Variant	abundance fitness
SMGQARALMGLSAQLDEELDFREGDVITIIGVFEPGWFEGELEGRRGIFPEGFVELLGPLR	-0.693 ± 0.33
SMGQARALMGLSAQLDEELDFREGDVITIIGVCEPGWFEGELEGRRGIFPEGFVELLGPLR	-0.792 ± 0.18
SMGQARALMGLSAQLDEELDFREGDVITIIGVIEPGWFEGELEGRRGIFPEGFVELLGPLR	-0.494 ± 0.15
SMGQARALMGLSAQLDEELDFREGDVITIIGVKEPGWFEGELEGRRGIFPEGFVELLGPLR	-0.215 ± 0.13
SMGQARALMGLSAQLDEELDFREGDVITIIGVWEPGWFEGELEGRRGIFPEGFVELLGPLR	-0.711 ± 0.19
SMGQARALMGLSAQLDEELDFREGDVITIIGVTEPGWFEGELEGRRGIFPEGFVELLGPLR	-0.386 ± 0.16
SMGQARALMGLSAQLDEELDFREGDVITIIGVSEPGWFEGELEGRRGIFPEGFVELLGPLR	-0.65 ± 0.1
SMGQARALMGLSAQLDEELDFREGDVITIIGVYEPGWFEGELEGRRGIFPEGFVELLGPLR	-0.587 ± 0.14
SMGQARALMGLSAQLDEELDFREGDVITIIGVVEPGWFEGELEGRRGIFPEGFVELLGPLR	-0.435 ± 0.17
SMGQARALMGLSAQLDEELDFREGDVITIIGVLEPGWFEGELEGRRGIFPEGFVELLGPLR	-0.615 ± 0.19
SMGQARALMGLSAQLDEELDFREGDVITIIGVREPGWFEGELEGRRGIFPEGFVELLGPLR	-0.155 ± 0.071
SMGQARALMGLSAQLDEELDFREGDVITIIGVGEPGWFEGELEGRRGIFPEGFVELLGPLR	-0.469 ± 0.12
SMGQARALMGLSAQLDEELDFREGDVITIIGVAEPGWFEGELEGRRGIFPEGFVELLGPLR	-0.971 ± 0.3
SMGQARALMGLSAQLDEELDFREGDVITIIGVNEPGWFEGELEGRRGIFPEGFVELLGPLR	-1.07 ± 0.24
SMGQARALMGLSAQLDEELDFREGDVITYIGVPEPGWFEGELEGRRGIFPEGFVELLGPLR	-0.997 ± 0.27
SMGQARALMGLSAQLDEELDFREGDVITFIGVPEPGWFEGELEGRRGIFPEGFVELLGPLR	-0.924 ± 0.2
SMGQARALMGLSAQLDEELDFREGDVITNIGVPEPGWFEGELEGRRGIFPEGFVELLGPLR	-0.461 ± 0.12
SMGQARALMGLSAQLDEELDFREGDVITQIGVPEPGWFEGELEGRRGIFPEGFVELLGPLR	-0.082 ± 0.25
SMGQARALMGLSAQLDEELDFREGDVITAIGVPEPGWFEGELEGRRGIFPEGFVELLGPLR	-0.665 ± 0.16
SMGQARALMGLSAQLDEELDFREGDVITPIGVPEPGWFEGELEGRRGIFPEGFVELLGPLR	-0.595 ± 0.21
SMGQARALMGLSAQLDEELDFREGDVITIITVPEPGWFEGELEGRRGIFPEGFVELLGPLR	-0.717 ± 0.32
SMGQARALMGLSAQLDEELDFREGDVITIIYVPEPGWFEGELEGRRGIFPEGFVELLGPLR	-0.975 ± 0.42

Variant	abundance fitness
SMGQARALMGLSAQLDEELDFREGDVITIIPVPEPGWFEGELEGRRGIFPEGFVELLGPLR	-0.121 ± 0.15
SMGQARALMGLSAQLDEELDFREGDVITIIWVPEPGWFEGELEGRRGIFPEGFVELLGPLR	-0.955 ± 0.36
SMGQARALMGLSAQLDEELDFREGDVITIIKVPEPGWFEGELEGRRGIFPEGFVELLGPLR	-0.085 ± 0.24
SMGQARALMGLSAQLDEELDFREGDVITIIGVPIPGWFEGELEGRRGIFPEGFVELLGPLR	-0.055 ± 0.2
SMGQARALMGLSAQLDEELDFREGDVITIIGVPGPGWFEGELEGRRGIFPEGFVELLGPLR	-0.379 ± 0.16
SMGQARALMGLSAQLDEELDFREGDVITIIGVPLPGWFEGELEGRRGIFPEGFVELLGPLR	-0.611 ± 0.2
SMGQARALMGLSAQLDEELDFREGDVITIIGVPMPGWFEGELEGRRGIFPEGFVELLGPLR	-0.398 ± 0.3
SMGQARALMGLSAQLDEELDFREGDVITIIGVPAPGWFEGELEGRRGIFPEGFVELLGPLR	-0.42 ± 0.28
SMGQARALMGLSAQLDEELDFRERDVITIIGVPEPGWFEGELEGRRGIFPEGFVELLGPLR	-0.778 ± 0.09
SMGQARALMGLSAQLDEELDFREWDVITIIGVPEPGWFEGELEGRRGIFPEGFVELLGPLR	-0.891 ± 0.21
SMGQARALMGLSAQLDEELDFREIDVITIIGVPEPGWFEGELEGRRGIFPEGFVELLGPLR	-0.897 ± 0.13
SMGQARALMGLSAQLDEELDFRETDVITIIGVPEPGWFEGELEGRRGIFPEGFVELLGPLR	-0.818 ± 0.12
SMGQARALMGLSAQLDEELDFREEDVITIIGVPEPGWFEGELEGRRGIFPEGFVELLGPLR	-0.593 ± 0.2
SMGQARALMGLSAQLDEELDFREQDVITIIGVPEPGWFEGELEGRRGIFPEGFVELLGPLR	-0.733 ± 0.28
SMGQARALMGLSAQLDEELDFRENDVITIIGVPEPGWFEGELEGRRGIFPEGFVELLGPLR	-0.253 ± 0.065
SMGQARALMGLSAQLDEELDFREPDVITIIGVPEPGWFEGELEGRRGIFPEGFVELLGPLR	-0.749 ± 0.13
SMGQARALMGLSAQLDEELDFREYDVITIIGVPEPGWFEGELEGRRGIFPEGFVELLGPLR	-0.729 ± 0.1
SMGQARALMGLSAQLDEELDFREADVITIIGVPEPGWFEGELEGRRGIFPEGFVELLGPLR	-0.551 ± 0.079
SMGQARALMGLSAQLDEELDFREVDVITIIGVPEPGWFEGELEGRRGIFPEGFVELLGPLR	-0.701 ± 0.08
SMGQARALMGLSAQLDEELDFREHDVITIIGVPEPGWFEGELEGRRGIFPEGFVELLGPLR	-0.679 ± 0.17
SMGQARALMGLSAQLDEELDFREFDVITIIGVPEPGWFEGELEGRRGIFPEGFVELLGPLR	-0.82 ± 0.1
